These results are taken from publication PMC13602928.

For test [1], the target named is stripped Anabaena flos-aquae (Ana) gas vesicles (GV shell, native GvpC removed) (Anabaena flos-aquae) (UniProt P10397).
Test [2] shares this target. The source holds these as a separate data set.

Sequence of UniProt P10397 (P10397 whole entry): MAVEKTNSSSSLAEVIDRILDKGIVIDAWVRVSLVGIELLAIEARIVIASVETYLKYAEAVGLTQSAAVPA

phosphorylated UReKA1 GvpC (pThr60): in test [1], the midpoint collapse pressure of UReKA1 GVs (pressurized absorbance spectroscopy), after PKA phosphorylation was determined as 227 kPa and the nonlinear (xAM) ultrasound signal of purified UReKA1 GVs at 350 kPa, with PKA against without PKA is 4.5 fold. In test [2], this substance yielded a time course of the nonlinear ultrasound signal of UReKA1 GVs after PKA addition; time to maximal contrast (signal first detectable after 2-3 h) of 8 h.
In test [1], phosphorylated UReKA2 GvpC (pThr81) displayed a midpoint collapse pressure of UReKA2 GVs (pressurized absorbance spectroscopy), after PKA phosphorylation of 283 kPa and a nonlinear (xAM) ultrasound signal of purified UReKA2 GVs at 489 kPa, with PKA against without PKA of 12.9 fold. The time course of the nonlinear ultrasound signal of UReKA2 GVs after PKA addition; time to maximal contrast (signal first detectable after 2-3 h) in test [2] was determined as 12 h.
